± gives the uncertainty stated by the source.
Assay: amyloid nucleation score (Sup35N fusion, yeast selection) (log enrichment); library NNK1; higher = more nucleation; inactive = no reads after selection
Summary of the method: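 The nucleation score, computed with DiMSum, is the log enrichment of output over input reads, centred on the mode score of non-aggregating sequences. Sequences with under 100 input reads were dropped. Reads were generated by Illumina sequencing of plasmid inserts from psi-negative yeast with Sup35N fused to peptides of 20 random codons, induced with 100 μM copper sulfate for 24 hours and grown 7 days at 30°C on medium lacking adenine and uracil.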

Row | Substance | amyloid nucleation score
1 | IVRDFMVLINR | -0.911 ± 1.3
2 | GALVYAFYAAS | 0.525 ± 0.89
3 | CNMKNDLTRGNSRFCNLCCN | 0.85 ± 0.53
4 | VNCVGKLKFDE | 0.05 ± 0.18
5 | GGIGDQVITRNVGRPREYQR | 1.34 ± 0.76
6 | FVSVCD | -0.049 ± 1
7 | VLDQHPRDFESRGMVMANFY | 1.55 ± 0.24
8 | CSWAASY | -0.689 ± 1.9
9 | AKELDNGIYFMKLWLREELE | -0.743 ± 1.2
10 | RFHSFYNPQSSIDITLVGGF | 4.65 ± 0.089
11 | YLRLFFVRCGHPDSETSYRS | 0.418 ± 0.33
12 | LDRVSWSDRKSNGQ | 1.44 ± 0.41
13 | IKATGTRPRIHRYFGNC | -0.173 ± 0.58
14 | MDNCIISRYMFHMLVTSKVY | 0.996 ± 0.52
15 | QIVRTRFNRYR | -0.313 ± 1.1
16 | FNIHCVSSA | -0.015 ± 0.47
17 | PLHAANDLSCPENLDVWYHE | -0.696 ± 0.83
18 | RGTGLICCTNVCGRTWKGHN | 7.406 ± 0.047
19 | LWCITYH | 4.14 ± 0.1
20 | MGYCIWFYLKSYH | -0.074 ± 0.3
21 | ARATQAEYRIERRGRFCILS | 0.21 ± 0.38
22 | DQVQGFISFLMLFKDFVSYG | -0.028 ± 0.33
23 | RVAPKGNRARDHVDSSSECS | 2.14 ± 0.18
24 | FLCLLMFPIRHRL | 0.004 ± 0.33
25 | GWDYLFFLFTFCYV | -0.771 ± 1.1

Row | Substance | amyloid nucleation score
26 | DRFLCGWSLPSC | -0.656 ± 0.61
27 | KWNLGYIYMYRATIK | 1.44 ± 0.84
28 | LSPGYSHTN | -0.423 ± 0.6
29 | NQNAGELNKFPWDRWKYLYV | -1.1 ± 0.74
30 | HNKVATMW | 1.46 ± 0.25
31 | FSHAGD | -0.494 ± 0.71
32 | SIRLHS | 2.65 ± 0.31
33 | IFSGECHVYVGSRQGWALVI | -0.22 ± 0.98
34 | LVLFVTFGWCIDELRWMKRR | -0.51 ± 2.1
35 | FCDRNIIVCSELGKGWLWLR | 1.4 ± 0.25
36 | WMYTMTGFEVNRTVNFYWTI | -0.095 ± 0.29
37 | FGYRMAYGSHVFVHSYRTEP | 2.42 ± 0.24
38 | DSYWILSLLWGL | -0.369 ± 0.19
39 | SNIQDCYRFEGLHKKTNENL | -0.684 ± 0.91
40 | DIKYECIS | 0.204 ± 0.34
41 | EWYLIYGGTRSGLIYRSYAR | 0.109 ± 0.38
42 | HLRNLKDFNVQPF | 0.635 ± 1.2
43 | LVPCSWFYLDRSAQDSDCFS | -0.754 ± 1.1
44 | VHWIWGF | 0.228 ± 0.5
45 | SSTGAVLIHNCTTRSVDLSG | 0.45 ± 0.69
46 | GGCMV | 0.493 ± 0.42
47 | YSGVPLARQCGADGLKGTGE | 0.724 ± 1.2
48 | LSHWAIVFVICGPRSKKGGS | -0.115 ± 1
49 | CRSTYDQLPEYLST | -0.117 ± 0.56
50 | GSDNLDFRCNWVYN | 0.616 ± 0.69

Row | Substance | amyloid nucleation score
51 | ENQFTVLSNGFDVIALFSFE | 1.07 ± 0.93
52 | GMEFMIMGNLVITGVIDKCH | -0.262 ± 0.39
53 | SATIKYHYFLTFFNVDRFCR | 2.07 ± 0.46
54 | EYWGRGEVRADMWRRWIGW | 1.23 ± 0.4
55 | WNPYPTCSYSPFATSGDSAF | -1.13 ± 0.76
56 | EFRQMVVSSGSDERGERDKG | 0.052 ± 0.29
57 | ILRQIDIDATYVIFLEMSRL | 5.854 ± 0.047
58 | DSRYYTDADALVDR | inactive
59 | WWLLSLP | 0.196 ± 0.26
60 | DALDLRSWQGEL | -0.274 ± 1.7
61 | VTGWFYAGILYAFLYSQVLF | 0.171 ± 1.2
62 | FYYGSLPYCVTKRFRDFGNQ | 3.02 ± 0.18
63 | EHLVHLYKFSSAFERVGW | -0.352 ± 0.7
64 | MVVYFNLPAVMLIDCMMSAI | 0.708 ± 0.62
65 | GYTLRPNERPKIRQV | 0.244 ± 0.63
66 | VTFHLEARLAGLDLMGYSTS | 0.835 ± 0.53
67 | SPPDVSNN | -0.169 ± 0.75
68 | SVCILHMRRSCVGKPPKYNA | inactive
69 | DNVCRYGRKCWKRERESGQT | 0.105 ± 0.42
70 | VTQFSVWLVLRICGLTLRWY | 0.31 ± 1
71 | WLDRGW | 0.282 ± 0.33
72 | ATVDGRLIRDVSISCMGYDV | -1.12 ± 2.4
73 | GRVFSFMIGFFVALTERTRA | -0.037 ± 1.7
74 | HFLVKCLLLLSVSSKLCVSR | 0.564 ± 0.33
75 | LLRVTEYLIIRPCSVFVINR | -0.459 ± 0.36

Row | Substance | amyloid nucleation score
76 | DWNYKFMGRRLEHMCQVLM | -1.03 ± 1.1
77 | LWPFKSFGLVPCTV | -0.572 ± 0.69
78 | SMMSGCGTGVAPKAWSGDGW | 0.974 ± 0.62
79 | LFKFYCKTYHTPLSLIYPFW | inactive
80 | VFLRRVINTSFGSMMV | 0.976 ± 1.1
81 | IEDFEKGISVRVVTLWSWVV | -0.93 ± 0.39
82 | GRSAVAFISPPLSLRIAQCP | 0.252 ± 0.28
83 | RLLPYILMTFLHEYVGAGYE | 0.561 ± 0.37
84 | RQAFIRGGLEAAKGAYHVLG | -1.38 ± 2.4
85 | ISQYILSHLCQFIVSIGLAT | -0.454 ± 0.88
86 | CFSGPPMTESVYNPTSGNEH | 0.152 ± 0.72
87 | VGNMYYGSTSHNDT | -1.48 ± 1.7
88 | HIKASDFIW | -0.333 ± 0.31
89 | CSCYRFLGDSKWIRHHINRT | -0.679 ± 0.85
90 | CRLFVFPF | -0.336 ± 1.4
91 | WSWRRVVAWLH | 0.727 ± 0.34
92 | RTLLSFNRDVSFEGQPPGWL | 0.352 ± 1
93 | ETLSFGKHLPRVHAFHHVRC | -0.671 ± 1.2
94 | FFLMIQSVT | 0.84 ± 0.47
95 | LRSSWRTSIWHTWLWPYGDW | 0.287 ± 0.87
96 | CNCMVLSPLDVMEPIAMGFQ | 0.455 ± 1.4
97 | VLGGCYNFLLCF | 7.713 ± 0.059
98 | IYGELLHLWLISEFCDVRNC | 0.788 ± 0.79
99 | LALVRVIGDKNRWWRILSVW | 0.708 ± 0.58
100 | YRCTLASNRLRFLWITSNVR | -0.085 ± 0.58

Row | Substance | amyloid nucleation score
101 | FYGVRVTGAAFRALVMVSPR | 0.616 ± 1.1
102 | FSGCGWYRTVDYGGP | inactive
103 | VDLFYE | inactive
104 | CRMTGSFKSTCRSKGLASCS | 0.002 ± 0.3
105 | NLCVVREWYSKSCWPRFLRV | -0.274 ± 0.56
106 | RMFVGWHSLERIL | 1.21 ± 0.43
107 | LSYSWADSAPLCCTPMRGRG | -0.324 ± 0.37
108 | IAILNLDNLGGYGCNCFHYF | 4.23 ± 0.13
109 | QFPERWDPFLPMSRASRYYH | 0.865 ± 0.69
110 | SCKDSCTEYSGAIYVLVWVK | 0.604 ± 0.56
111 | GNVAWYTSIGCGGMILWADF | -0.124 ± 0.76
112 | SHERLNQCSNFSSWQNRGGL | -0.588 ± 0.73
113 | LVHTDTNLVF | inactive
114 | LGNCTGRRHV | 2.42 ± 0.36
115 | SGGIQCTGGRISVSCAVGKN | -0.224 ± 0.94
116 | IKFRCYLCG | 0.44 ± 0.9
117 | IASDRFF | 0.77 ± 0.97
118 | HLGLSNPFMMSFHV | -0.189 ± 0.34
119 | IRWRSSFVQSMMVTHQHQSF | 1.85 ± 0.16
120 | CVGDFVME | -0.318 ± 0.98
121 | CVPSVRNSVMW | -0.181 ± 0.88
122 | RARRGWSTGDEQHMSGKGIK | 0.097 ± 0.49
123 | MVGSKSGKDGAQASSRKLAF | 0.708 ± 0.34
124 | CMLDGALLLILVVFTIPCLN | 0.909 ± 0.6
125 | SSVYFSRFTERQKAVRETGS | inactive

Row | Substance | amyloid nucleation score
126 | CLINFP | 0.722 ± 0.74
127 | AEYCSNVGMSLYFLWSKPMQ | 1.89 ± 0.18
128 | CVLRMNVFDSKGFWVGYRRD | 0.602 ± 0.41
129 | FRTHVGSDCGL | -0.026 ± 1
130 | YDKFPTLVMGAKRSGWG | -0.761 ± 0.78
131 | PIVLWTIIPNTFKS | 1.25 ± 0.17
132 | NLSAVRLAYLPCVSHTHCAV | 0.875 ± 0.45
133 | WCLGMWLLHVLTTETTFKCT | -0.158 ± 0.34
134 | NSTSCCVMGVSVRFMSFF | 7.498 ± 0.069
135 | ARWMVWTLESHLPDNFTMVN | -1.21 ± 1.1
136 | LYSFNGN | inactive
137 | MITWKGLFPAGVGFLRLHA | -0.024 ± 0.43
138 | DDCRMYAFL | 0.776 ± 0.36
139 | GGLGTPFFHAPSHMWVKW | -0.551 ± 0.55
140 | YLNILMSWI | -0.921 ± 0.66
141 | LQERWMAMGGGGQGVVWGFT | 0.305 ± 0.79
142 | PSIGMVF | 1.77 ± 0.53
143 | ETLAFVLRFRNREDFCGGMV | 1.01 ± 0.64
144 | MSAGIVFIKQFVCS | 3.25 ± 0.12
145 | FSYLSFCPVVSFESTFPTPM | 5.29 ± 0.066
146 | CWRFRPFRPASIKFTQYNNH | 4.49 ± 0.072
147 | YHSSYVK | -1.36 ± 2.7
148 | VVNVQMNQPYMQCFPQDTR | 3.93 ± 0.082
149 | RADGLHASETVGSLL | -1.13 ± 2.7
150 | GSHIVLSSFFGMLMLWGVDP | 0.56 ± 0.39

Row | Substance | amyloid nucleation score
151 | LYPSISGFFCCKWGSVVNGL | inactive
152 | ESRCRTLKIVLCCGFLSDWP | inactive
153 | YDYLDALHLTEASKSGCLVN | 0.423 ± 0.69
154 | CRWSVLGREFSSQFVCWEDW | -0.59 ± 0.54
155 | IRRYPAFFFNVYPSTSMFCS | -1.21 ± 0.88
156 | LRYILFKNPSPNNIESL | -0.194 ± 0.53
157 | RRMTDLFV | -0.354 ± 0.3
158 | WADNNTSH | -0.094 ± 0.34
159 | TRDTLIWFGRFGSMTDWCSW | 0.192 ± 0.63
160 | DMHLMSGDLGMRVRPGGSAV | 0.371 ± 0.7
161 | EVASGVCTRIRLYSRCEWKG | 2.84 ± 0.091
162 | RFSRVFIRLMGDVALSSGLL | 0.532 ± 0.53
163 | VAGCNVDIDVNMSCRGDMWK | 2.81 ± 0.12
164 | GLFNSDRVNQWPPGPCRDYV | 0.5 ± 0.28
165 | PSRDSV | -1.06 ± 1.2
166 | RRENIP | 0.01 ± 0.42
167 | CLMGTHILGSRVVGTPSMVR | 0.47 ± 1.2
168 | RPNMVNVKNSRRFSL | 0.257 ± 0.48
169 | SMWKWDQKGKDNGTKNNKRL | -0.939 ± 0.8
170 | QGSYLHLSIKWLAFRSMS | 0.19 ± 0.4
171 | WVLPEAHVYGRWVT | 1.06 ± 0.52
172 | VSYTVSFSFFLFLFNWHSYV | 0.147 ± 0.65
173 | FGAFYVGDHG | -1.7 ± 1.3
